Data from patent US20260242489A1 (HUAHUI HEALTH, published 2026).

Legend:
[1] = biological target: T1, hEGFR ECR-His6-Avi-Biotin (human, UniProt P00533 25-642, biotinylated on the Avi tag using BirA ligase); assay: ELISA: hEGFR ECR on plate, IgG1 titrated, anti-hFc-HRP; pH 7.4 [right panel]
T1 construct: also called WT hEGFR ECR; human EGFR ECD; not shown: His6-Avi tag

[2] = biological target: T1, hEGFR ECR-His6-Avi-Biotin; assay: ELISA: hEGFR ECR on plate, IgG1 titrated, anti-hFc-HRP; pH 6.0 [right panel]
Source text: Then antibody-hEGFR binding was detected with an HRP-conjugated anti-hFc secondary antibody.

[3] = biological target: T1, hEGFR ECR-His6-Avi-Biotin; assay: phage ELISA: biotinylated hEGFR ECR captured on streptavidin plate, phage display scFv titrated, anti-M13-HRP; pH 6.0
[4] = biological target: T1, hEGFR ECR-His6-Avi-Biotin; assay: IgG1 ELISA on hEGFR ECR, pH 6.5 and pH 7.4
[5] = biological target: T1, hEGFR ECR-His6-Avi-Biotin; assay: ELISA: hEGFR ECR on plate, IgG1 titrated, anti-hFc-HRP; pH 6.5 [table]
[6] = biological target: T1, hEGFR ECR-His6-Avi-Biotin; assay: ELISA: hEGFR ECR on plate, IgG1 titrated, anti-hFc-HRP; pH 7.4 [table]
[7] = biological target: T1, hEGFR ECR-His6-Avi-Biotin; assay: SPR (Biacore T200), hEGFR ECR analyte, steady-state affinity model
Procedure: (§1) Kinetics analyses of the binding of anti-EGFR antibodies to the ECR of mouse and human EGFR were performed on a Biacore T200 instrument (Biacore, GE Healthcare). Anti-hFc Ab or protein A/G (Thermo Fisher Scientific) was covalently attached to the surface of a CM5 sensor chip using an amine coupling kit (GE Healthcare). […] Binding kinetics were evaluated using a 1:1 Langmuir binding model. The dissociation constant (KD) values were calculated with a steady-state affinity model using the Biacore T200 evaluation software.

[8] = biological target: T2, mEGFR ECR (His6-Avi-tagged) (mouse, UniProt Q01279 25-644); assay: SPR (Biacore T200), antibody captured, mEGFR ECR analyte, steady-state affinity model, pH 6.5
T2 construct: also called mouse EGFR; not shown: His6-Avi tag

[9] = biological target: T3, human EGFR, full-length, on A-431 cells or CT26-hEGFR cells (human, UniProt P00533 25-1210); assay: flow cytometry on CT26-hEGFR cells
T3 construct: A-431 cells (own EGFR) and mouse CT26 cells transfected with human EGFR; the cell line is named under assay
Procedure: (§2) Antibody binding to cells was then assessed based on the fluorescence intensity for FITC.

[10] = biological target: T1, hEGFR ECR-His6-Avi-Biotin; assay: SPR (Biacore T200), antibody captured, hEGFR ECR analyte, steady-state affinity model, pH 6.5
Procedure: as §1

[11] = biological target: T2, mEGFR ECR (His6-Avi-tagged); assay: SPR (Biacore T200), antibody captured, mEGFR ECR analyte, steady-state affinity model, pH 7.4
Procedure: as §1

[12] = biological target: T3, human EGFR, full-length, on A-431 cells …; assay: flow cytometry on A-431 cells, pH 6.5
Procedure: as §2

[13] = biological target: T1, hEGFR ECR-His6-Avi-Biotin; assay: competition ELISA: hEGFR ECR on plate, IgG1 titrated in a mixture with EGF-mFc, bound EGF-mFc detected with anti-mFc-HRP; pH 6.5 [table]
[14] = biological target: T3, human EGFR, full-length, on A-431 cells …; assay: flow cytometry on CT26-hEGFR cells, pH 6.5
Procedure: as §2

[15] = biological target: T2, mEGFR ECR (His6-Avi-tagged); assay: SPR (Biacore T200), mEGFR ECR analyte, steady-state affinity model
Procedure: as §1

[16] = biological target: T3, human EGFR, full-length, on A-431 cells …; assay: flow cytometry on A-431 cells
Procedure: as §2

[17] = biological target: T1, hEGFR ECR-His6-Avi-Biotin; assay: SPR (Biacore T200), antibody captured, hEGFR ECR analyte, steady-state affinity model, pH 7.4
Procedure: as §1

[18] = biological target: T3, human EGFR, full-length, on A-431 cells …; assay: flow cytometry on A-431 cells, pH 7.4
Procedure: as §2

[19] = biological target: T3, human EGFR, full-length, on A-431 cells …; assay: flow cytometry on CT26-hEGFR cells, pH 7.4
Procedure: as §2

[20] = biological target: T1, hEGFR ECR-His6-Avi-Biotin; assay: phage ELISA: hEGFR ECR on plate, phage display Fab titrated, anti-M13-HRP; EC50 at pH 7.4 over EC50 at pH 6.5 [table]
[21] = biological target: T1, hEGFR ECR-His6-Avi-Biotin; assay: competition ELISA: hEGFR ECR on plate, IgG1 titrated in a mixture with EGF-mFc, bound EGF-mFc detected with anti-mFc-HRP; pH 7.4 [table]
[22] = biological target: T1, hEGFR ECR-His6-Avi-Biotin; assay: phage ELISA: biotinylated hEGFR ECR captured on streptavidin plate, phage display scFv titrated, anti-M13-HRP; pH 7.4

B1: 11A10 (full-length human IgG1 form) (antibody, V domains shown)
VH: EVQLVQSGAEVKKPGESLMISCKGSGYSFTNHWIGWVRQMPGKGPEWMGIINPRDSDARYSPSFRGQVTFSVDRSTNTAYLQWTSLKPSDTGMYFCARRDIVVVPAATPSYYYYGMDVWGQGTTVTVSS
VL: DIQLTQSPSSLSASVGDSVTITCRPRQSSSRFVNWYQHKPGKAPKLLISNASDLQHGVPSRFSGRGAGTEFTLTIDSLQPDDVATYYCEQSYRFPHMFGQGTKVEIKR
EC50 [1]: 58.9 nM
EC50 [2]: 1.36 nM

B2: 14C07 (phage display scFv form) (scFv, V domains shown)
VH: QVQLVQSGAEVKRPGSSVKVSCKASGGTFSSYAISWVRQAPGQGLEWMGGIIPIFGTANYAQKFQGRVTITADESTSTAYMELSSLRSEDTAVYYCARDSSSGWYDYFDYWGQGTLVTVSS
VL: QPVLTQPPSVSAAPGAMARITCESPDIGSKSVQWYQQRPGQAPILVIYYDDDRPSGIPERFSGSNSGNTAALTINWVEPEDEADYYCQAWDDSDPVVFGGGTQLTVL
EC50 (read off the curve) [3]: ~1e+11 cfu/ml

B3: G532^V (human IgG1 form) (antibody, V domains shown)
VH: QVQLVQSGAEVKRPGSSVKVSCKASGGISDGSAISWVRQAPGQGLEWMGGIRWWGGITNYAQKFQGRVTITADESTSTAYMELSSLRSEDTAVYYCARDSSLGYYDYFDYWGQGTLVTVSS
VL: QPVLTQPPSVSAAPGQTARITCGGNNIGEKHVQWYQQRPGQAPVLVIYYDSTRPSGIPERFSGSNSGNTAALTINSVEAGDEADYYCQAWDDYDPVVFGGGTQLTVLG
notes: G532 with LCDR1 E32H and LCDR2 D52S, D53T
EC50 ratio (pH 7.4/pH 6.5) [4]: 1.64
fold lower binding pH-dependency than G532 [4]: ~5 fold
EC50 [5]: 0.316 nM
EC50 [6]: 0.517 nM

B4: G532 (human IgG1 form) (antibody, V domains shown)
VH: QVQLVQSGAEVKRPGSSVKVSCKASGGISDGSAISWVRQAPGQGLEWMGGIRWWGGITNYAQKFQGRVTITADESTSTAYMELSSLRSEDTAVYYCARDSSLGYYDYFDYWGQGTLVTVSS
VL: QPVLTQPPSVSAAPGQTARITCGGNNIGEKEVQWYQQRPGQAPVLVIYYDDDRPSGIPERFSGSNSGNTAALTINSVEAGDEADYYCQAWDDYDPVVFGGGTQLTVLG
KD ratio (pH 7.4/6.5) [7]: 13.3
Kd [8]: 547 nM
EC50 ratio (pH 7.4/6.5) [9]: 19.4
Kd [10]: 294 nM
Kd [11]: 1810 nM
EC50 [12]: 0.528 nM
IC50 [13]: 20.6 nM
EC50 [14]: 0.787 nM
KD ratio (pH 7.4/6.5) [15]: 3.31
EC50 ratio (pH 7.4/pH 6.5) [4]: 8.08
EC50 ratio (pH 7.4/6.5) [16]: 26
EC50 [5]: 0.69 nM
EC50 [6]: 5.58 nM
Kd [17]: 3900 nM
EC50 [18]: 13.7 nM
EC50 [19]: 15.2 nM

B5: WT G5V2 (phage display Fab form) (Fab, V domains shown)
VH: QVQLVQSGAEVKRPGSSVKVSCKASGGISDGSAISWVRQAPGQGLEWMGGIYFFNGNTNYAQKFQGRVTITADESTSTAYMELSSLRSEDTAVYYCARDSSLGYYDYFDYWGQGTLVTVSS
VL: QPVLTQPPSVSAAPGQTARITCGGNNIGEKYVQWYQQRPGQAPVLVIYYDDDRPSGIPERFSGSNSGNTAALTINSVEAGDEADYYCQAWDDYDPVVFGGGTQLTVL
EC50 ratio (pH 7.4/pH 6.5) [20]: 1.21

B6: G532^Ctrl (human IgG1 form) (antibody, V domains shown)
VH: QVQLVQSGAEVKRPGSSVKVSCKASGGISDGSAISWVRQAPGQGLEWMGGIRWWGGITNYAQKFQGRVTITADESTSTAYMELSSLRSEDTAVYYCARDSSLGYYDYFDYWGQGTLVTVSS
VL: QPVLTQPPSVSAAPGQTARITCGGNNIGENHVQWYQQRPGQAPVLVIYYDSTRPSGIPERFSGSNSGNTAALTINSVEAGDEADYYCQAWDDYDPVVFGGGTQLTVLG
notes: G532^V with LCDR1 K31N; also called non-pH-dependent variant of G532
KD ratio (pH 7.4/6.5) [7]: 0.599
Kd [8]: 1270 nM
EC50 ratio (pH 7.4/6.5) [9]: 0.469
Kd [10]: 406 nM
Kd [11]: 743 nM
EC50 [12]: 0.771 nM
IC50 [13]: 39.5 nM
EC50 [14]: 1.25 nM
KD ratio (pH 7.4/6.5) [15]: 0.586
EC50 ratio (pH 7.4/pH 6.5) [4]: 0.759
EC50 ratio (pH 7.4/6.5) [16]: 0.718
EC50 [5]: 0.837 nM
EC50 [6]: 0.635 nM
IC50 [21]: 61.8 nM
Kd [17]: 243 nM
EC50 [18]: 0.554 nM
EC50 [19]: 0.587 nM

B7: G5V2 Y32H (phage display Fab form) (Fab, V domains shown)
VH: QVQLVQSGAEVKRPGSSVKVSCKASGGISDGSAISWVRQAPGQGLEWMGGIYFFNGNTNYAQKFQGRVTITADESTSTAYMELSSLRSEDTAVYYCARDSSLGYYDYFDYWGQGTLVTVSS
VL: QPVLTQPPSVSAAPGQTARITCGGNNIGEKHVQWYQQRPGQAPVLVIYYDDDRPSGIPERFSGSNSGNTAALTINSVEAGDEADYYCQAWDDYDPVVFGGGTQLTVL
notes: Kabat numbering (31st letter by plain count)
EC50 ratio (pH 7.4/pH 6.5) [20]: 0.61

B8: 11C04 (scFv, part only; not given: scFv linker, domain order, phage fusion, V domains shown, not shown: another chain or arm of the molecule; large carriers; small tags and cut ends)
VH: EVQLVQSGAEVKKPGASVKVSCKASGYTFTSYYMHWVRQAPGQGLEWMGIINPSGGSTSYAQKFQGRVTMTRDTSTSTVYMELSSLRSEDTAVYYCARDLEMAYYDILYGMDVWGQGTLVTVSS
VL: QSALTQPASVSGSAGQSITISCTGTTSDIGRYDYVSWYQQHPGQVPKLMIYDVSNRPSGVSDRFSGSKSGNTASLTISGLQTEDEADYYCSSYTTSGTRVFGGGTKLTVL
EC50 (read off the curve) [3]: 1e+10 cfu/ml
EC50 (read off the curve) [22]: 1e+10 cfu/ml
